Experimental data published in PMC6212786.

T1: T4 DNA ligase (gp30), full-length wild type (Bacteriophage T4 (ATCC), UniProt P00970 1-487)
T1 sequence: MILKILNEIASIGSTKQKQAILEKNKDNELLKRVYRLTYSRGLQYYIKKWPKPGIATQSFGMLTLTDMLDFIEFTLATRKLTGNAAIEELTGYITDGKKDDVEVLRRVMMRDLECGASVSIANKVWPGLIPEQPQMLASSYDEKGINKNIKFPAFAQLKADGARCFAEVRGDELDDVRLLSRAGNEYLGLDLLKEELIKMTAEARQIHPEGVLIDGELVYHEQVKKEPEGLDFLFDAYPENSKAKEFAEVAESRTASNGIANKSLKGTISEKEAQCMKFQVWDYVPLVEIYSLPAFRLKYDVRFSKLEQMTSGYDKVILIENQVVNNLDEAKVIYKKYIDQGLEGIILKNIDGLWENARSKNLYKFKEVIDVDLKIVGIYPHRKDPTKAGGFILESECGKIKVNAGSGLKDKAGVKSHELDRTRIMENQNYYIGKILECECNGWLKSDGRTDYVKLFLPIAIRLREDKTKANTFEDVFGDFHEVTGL

T2: T4 DNA ligase DBD fragment (Bacteriophage T4 (ATCC), UniProt P00970 1-129)
T2 sequence: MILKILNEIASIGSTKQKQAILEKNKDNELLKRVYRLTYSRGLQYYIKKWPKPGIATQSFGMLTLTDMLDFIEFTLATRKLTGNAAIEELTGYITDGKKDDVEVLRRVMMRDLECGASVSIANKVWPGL

T3: T4 DNA ligase NTase-OB fragment (2CT) (Bacteriophage T4 (ATCC), UniProt P00970 136-487)
T3 sequence: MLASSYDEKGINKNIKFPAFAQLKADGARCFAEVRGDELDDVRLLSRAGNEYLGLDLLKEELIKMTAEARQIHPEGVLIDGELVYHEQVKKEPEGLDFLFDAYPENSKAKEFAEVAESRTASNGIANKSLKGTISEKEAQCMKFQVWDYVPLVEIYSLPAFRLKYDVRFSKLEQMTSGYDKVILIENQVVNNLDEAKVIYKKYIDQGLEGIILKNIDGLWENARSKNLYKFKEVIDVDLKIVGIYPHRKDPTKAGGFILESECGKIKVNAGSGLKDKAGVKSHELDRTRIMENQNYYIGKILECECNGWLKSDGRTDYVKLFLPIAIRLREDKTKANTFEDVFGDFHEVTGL

B1: nicked 32-bp dsDNA probe (dsDNA)
DNA 1: GGTAGCCACAGCCAGTCAGCCGATTGCGGGAC
DNA 2: GTCCCGCAATCGGCTG
DNA 3: ACTGGCTGTGGCTACC
modifications: 5'-phosphate on S6 at the nick
B2: intact (unnicked) 32-bp dsDNA probe (dsDNA)
DNA 1: B1 DNA 1
DNA 2: GTCCCGCAATCGGCTGACTGGCTGTGGCTACC

Tests used:
Assay in all cases: fluorescence anisotropy
[1] = molecular target: T1, T4 DNA ligase (gp30), full-length wild …
[2] = molecular target: T2, T4 DNA ligase DBD fragment
[3] = molecular target: Human DNA ligase 1 (hLig1) (human, UniProt P18858 233-919)
Chain of Human DNA ligase 1 (hLig1) (P18858 233-919): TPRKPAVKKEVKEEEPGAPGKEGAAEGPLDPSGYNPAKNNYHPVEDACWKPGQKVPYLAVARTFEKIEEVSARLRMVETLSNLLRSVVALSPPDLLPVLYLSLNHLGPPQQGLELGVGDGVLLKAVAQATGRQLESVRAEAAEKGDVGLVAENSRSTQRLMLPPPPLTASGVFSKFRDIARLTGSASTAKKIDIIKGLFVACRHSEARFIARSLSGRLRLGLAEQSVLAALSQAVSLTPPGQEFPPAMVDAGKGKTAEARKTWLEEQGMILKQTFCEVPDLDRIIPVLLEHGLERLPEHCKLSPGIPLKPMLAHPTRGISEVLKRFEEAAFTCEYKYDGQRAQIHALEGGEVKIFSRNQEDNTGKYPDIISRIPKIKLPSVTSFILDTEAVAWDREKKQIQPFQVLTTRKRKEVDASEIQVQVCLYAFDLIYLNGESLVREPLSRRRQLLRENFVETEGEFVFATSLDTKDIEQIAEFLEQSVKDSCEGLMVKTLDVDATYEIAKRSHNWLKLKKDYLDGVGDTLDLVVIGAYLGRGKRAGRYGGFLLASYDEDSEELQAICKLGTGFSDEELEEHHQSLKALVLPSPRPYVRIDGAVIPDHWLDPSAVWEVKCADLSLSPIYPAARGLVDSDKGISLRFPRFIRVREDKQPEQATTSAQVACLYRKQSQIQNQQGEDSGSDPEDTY

[4] = molecular target: T3, T4 DNA ligase NTase-OB fragment (2CT)

| Binder | Kd [1] [µM] | Kd [2] [µM] | Kd [3] [µM] | Kd [4] [µM] |
| --- | --- | --- | --- | --- |
| B1 | 6.3 | 138 | 7.7 | 23 |
| B2 | 6.6 | 119 | 11 | 17 |
